Data: patent US7888089B2, “eNOS mutations useful for gene therapy and therapeutic screening” (Yale University, priority 1999, dated 2011)
Substitutions are numbered along the chain they refer to. In names and notes the source's numbering stands.

Legend:
Akt [1] = target: T1, Akt (Homo sapiens, UniProt P31749); assay: In vitro phosphorylation of eNOS peptides (1174-1194) by recombinant Akt; type: biochemical; settings: n=5
T1 construct: host or cells: baculovirus-infected SF9 cells (Akt); peptides synthesized at the W. M. Keck Biotechnology Resource Center
T1 sequence (P31749 whole entry): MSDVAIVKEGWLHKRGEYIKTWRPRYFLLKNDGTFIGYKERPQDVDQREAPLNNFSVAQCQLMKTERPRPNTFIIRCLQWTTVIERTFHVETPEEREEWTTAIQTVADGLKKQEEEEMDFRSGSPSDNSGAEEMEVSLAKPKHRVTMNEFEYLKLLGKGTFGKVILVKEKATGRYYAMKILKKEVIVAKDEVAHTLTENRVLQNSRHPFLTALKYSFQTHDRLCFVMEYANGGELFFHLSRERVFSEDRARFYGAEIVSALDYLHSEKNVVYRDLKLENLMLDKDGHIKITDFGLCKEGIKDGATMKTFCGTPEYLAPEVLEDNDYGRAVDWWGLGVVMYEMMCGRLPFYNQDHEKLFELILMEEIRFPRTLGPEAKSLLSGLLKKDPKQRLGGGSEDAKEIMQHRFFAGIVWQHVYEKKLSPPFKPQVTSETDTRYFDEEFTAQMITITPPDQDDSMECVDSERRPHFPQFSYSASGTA
Procedure: In studies identifying the labeled eNOS peptide, immunoprecipitated Akt was incubated with recombinant eNOS as above. The sample was run on SDS-PAGE, and the eNOS band digested in gel, and the resultant tryptic fragments purified by RP-HPLC. Peptide mass and ^32P incorporation were monitored and the prominent labeled peak further analyzed by mass spectrometry. In other experiments, peptides corresponding to the potential Akt phosphorylation site were synthesized, purified by HPLC and verified by mass spectrometry (W. M. Keck Biotechnology Resource Center, Yale University School of Medicine). The wild-type peptide was 1174[…]1194 (SEQ ID NO:2) and the mutant peptide was identical except S1179 was changed to an alanine. In vitro kinase reactions were essentially as described above incubating peptides (25 mg) with recombinant Akt (1 mg). Reactions were then spotted onto phosphocellulose filters and the amount of phosphate incorporated measured by Cerenkov counting.

COS-7 cells = assay: NO release (NO2−, chemiluminescence) from transfected COS cells; type: cell-based; settings: for Akt dependent NO release / activation of NOS construct: NOS construct co-transfected with Akt; for NO2− accumulation on co-transfection with eNOS: Akt construct co-transfected with eNOS, FIG. 1A
Text: Cell Transfections: The bovine eNOS, human iNOS, rat nNOS cDNAs in pcDNA3 and HA-tagged wild-type Akt, Akt (K179M) or myr-Akt in pCMV6 were generated by standard cloning methods. The myr-nNOS in pcDNA3 was generated by PCR, incorporating a new amino terminus containing the eNOS N-myristoylation consensus site (MGNLKSVG, SEQ ID NO:1) fused in frame to the second amino acid of the nNOS coding sequence. […] Mutation of the putative Akt phosphorylation sites in eNOS were generated using the Quick Change site-directed mutagenesis kit (Stratagene) according to the manufacturers instructions. All mutants were verified by DNA sequencing. COS-7 cells were plated (100 mm dish) and transfected with the NOS (7.5-30 mg) and Akt (1 mg) plasmids using calcium phosphate. To balance all transfections, the expression vector for β-galactosidase cDNA was used. Twenty-four to forty-eight hours after transfection, the expression of appropriate proteins (40-80 mg) were confirmed by Western blot analysis using eNOS mAb (9D10, Zymed), HA mAb (12CA5, Boehringer Mannheim), iNOS pAb (Zymed Laboratories) or nNOS mAb (Zymed Laboratories).
NO release from transfected COS cells: 24-48 hrs after transfection, media was processed for the measurement of nitrite (NO2^−), the stable breakdown product of NO in aqueous solution, by NO specific chemiluminescence as described (Sessa et al., 1995). Media was deproteinized and samples containing NO2^− were refluxed in glacial acetic acid containing sodium iodide. […] In all experiments, NO2^− release was inhibitable by a NOS inhibitor. In addition, NO2^−-release from cells transfected with the β-galactosidase cDNA was subtracted to control for background levels of NO2^− found in serum or media. In some experiments, cGMP accumulation in COS was used as a bioassay for the production of NO as described.

Akt [2] = assay: In vitro kinase reaction with Akt immunoprecipitated from COS cells; type: biochemical; settings: immunoprecipitated kinase
Akt [3] = target: T1, Akt; assay: In vitro phosphorylation of purified eNOS by recombinant Akt; type: biochemical; settings: FIG. 2D
Procedure: In experiments examining the in vitro phosphorylation of wild-type and mutant eNOS, recombinant Akt (1 mg) purified from baculovirus infected SF9 cells, was incubated with wild-type or S1179A eNOS (2.4 mg, purified from E. coli) using essentially the same conditions as above. Proteins were resolved by SDS-PAGE and ^32P incorporation and the amount of protein determined by Coomassie staining as above.

eNOS = assay: NOS activity (3H-L-arginine to 3H-L-citrulline) in COS cell lysates; type: biochemical, bovine; settings: COS cells transfected with eNOS only, n=3
Text: NOS activity assays: The conversion of ^3H-L-arginine to ^3H-L-citrulline was used to determine NOS activity in COS cell or endothelial cell lysates as previously described by Garcia-Cardena et al. (1998).

Akt [4] = assay: 32P phosphorylation of eNOS in intact transfected COS cells; type: cell-based; settings: eNOS/Akt transfected COS cells; wortmannin 500 nM
Procedure: Phosphorylation studies in vivo and in vitro: For in vivo phosphorylation studies, COS cells were transfected with the cDNAs for wild-type or S635, 1179A eNOS and HA-Akt overnight. 36 hrs after transfection, cells were placed into dialyzed serum replete, phosphate-free Dulbecco's minimum essential medium supplemented with 80 μCi/ml of ^32P orthophosphoric acid for 3 hr. Some cells were pretreated with wortmannin (500 nM) in the phosphate-free media for 1 hr and during the labeling.

In the case of “1174RIRTQSFSLQERHLRGAVPWA1194 (listed as Bos sp.) [wild-type peptide]”, the “phosphate incorporated into peptide” value (Akt [1]) is reported as 24.6±3.7 nmol phosphate/mg.

With “iNOS: human inducible NOS [reference compound]” the “Akt dependent NO release / activation of NOS construct” value (“Akt dependent NO release / activation” for short) (COS-7 cells) was “did not result in a further increase in NO release”.

In the case of “kinase inactive Akt: kinase inactive Akt (K179M) [reference compound]”, the “histone or eNOS phosphorylation by Akt variant” value (Akt [2]) is reported as “did not significantly increase histone or eNOS phosphorylation” and the “NO2− accumulation on co-transfection with eNOS” value (COS-7 cells) is reported as “not”.

For “myr-nNOS: nNOS with new amino terminus containing the eNOS N-myristoylation consensus site (MGNLKSVG)”, the “Akt dependent NO release / activation” value (COS-7 cells) was “results in Akt stimulation of nNOS”.

For “nNOS: rat neuronal NOS [reference compound]”, the “Akt dependent NO release / activation” value (COS-7 cells) was “did not result in a further increase in NO release”.

“wild-type Akt: HA-tagged wild-type Akt (protein kinase B) [reference compound]” was tested, and the “NO2− accumulation on co-transfection with eNOS” value (COS-7 cells) was “markedly enhanced”.

B1: G2A eNOS: myristoylation, palmitoylation defective mutant of eNOS (protein)
chain: ANLKSVGQEPGPPCGLGLGLGLGLCGKQGPASPAPEPSRAPAPATPHAPDHSPAPNSPTLTRPPEGPKFPRVKNWELGSITYDTLCAQSQQDGPCTPRCCLGSLVLPRKLQTRPSPGPPPAEQLLSQARDFINQYYSSIKRSGSQAHEERLQEVEAEVASTGTYHLRESELVFGAKQAWRNAPRCVGRIQWGKLQVFDARDCSSAQEMFTYICNHIKYATNRGNLRSAITVFPQRAPGRGDFRIWNSQLVRYAGYRQQDGSVRGDPANVEITELCIQHGWTPGNGRFDVLPLLLQAPDEAPELFVLPPELVLEVPLEHPTLEWFAALGLRWYALPAVSNMLLEIGGLEFSAAPFSGWYMSTEIGTRNLCDPHRYNILEDVAVCMDLDTRTTSSLWKDKAAVEINLAVLHSFQLAKVTIVDHHAATVSFMKHLDNEQKARGGCPADWAWIVPPISGSLTPVFHQEMVNYILSPAFRYQPDPWKGSATKGAGITRKKTFKEVANAVKISASLMGTLMAKRVKATILYASETGRAQSYAQQLGRLFRKAFDPRVLCMDEYDVVSLEHEALVLVVTSTFGNGDPPENGESFAAALMEMSGPYNSSPRPEQHKSYKIRFNSVSCSDPLVSSWRRKRKESSNTDSAGALGTLRFCVFGLGSRAYPHFCAFARAVDTRLEELGGERLLQLGQGDELCGQEEAFRGWAKAAFQASCETFCVGEEAKAAAQDIFSPKRSWKRQRYRLSTQAEGLQLLPGLIHVHRRKMFQATVLSVENLQSSKSTRATILVRLDTAGQEGLQYQPGDHIGICPPNRPGLVEALLSRVEDPPPPTESVAVEQLEKGSPGGPPPSWVRDPRLPPCTLRQALTFFLDITSPPSPRLLRLLSTLAEEPSEQQELETLSQDPRRYEEWKWFRCPTLLEVLEQFPSVALPAPLLLTQLPLLQPRYYSVSSAPNAHPGEVHLTVAVLAYRTQDGLGPLHYGVCSTWLSQLKTGDPVPCFIRGAPSFRLPPDPYVPCILVGPGTGIAPFRGFWQERLHDIESKGLQPAPMTLVFGCRCSQLDHLYRDEVQDAQERGVFGRVLTAFSREPDSPKTYVQDILRTELAAEVHRVLCLERGHMFVCGDVTMATSVLQTVQRILATEGDMELDEAGDVIGVLRDQQRYHEDIFGLTLRTQEVTSRIRTQSFSLQERHLRGAVPWAFDPPGPDTPGP
In the case of B1, the “Akt dependent NO release / activation” value (COS-7 cells) is reported as “did not activate”.

B2: S1179A: bovine eNOS with serine 1179 mutated to alanine (protein)
chain: B1 chain with A1G, S1178A
For B2, the “Akt-dependent phosphorylation compared to the wild-type protein” value (Akt [3]) was “markedly reduces”, the “NOS activity in lysates” value (eNOS) was 71.9±2.9 pmol L-citrulline generated/mg protein and the “Akt dependent NO release / activation” value (COS-7 cells) was “abolishes Akt dependent activation of eNOS”.

B3: S635, 1179A: double serine mutant of eNOS, serines 635 and 1179 mutated to alanine (protein)
chain: B1 chain with A1G, S634A, S1178A
In the case of B3, the “Akt dependent phosphorylation of eNOS in intact cells” value (Akt [4]) is reported as “abolished Akt dependent phosphorylation of eNOS”, the “NOS activity in lysates” value (eNOS) is reported as 80.8±23.2 pmol L-citrulline generated/mg protein and the “Akt dependent NO release / activation” value (COS-7 cells) is reported as “abolishes Akt dependent NO release”.
